Measurements published in the supplement of paper PMC11316812.
± gives the standard deviation of the averaged measurements.

Experiments:
hTERT-HMEC = test: percentage of EdU-negative (G0-arrested) nuclei per well, 72 h; higher = more G0 arrest; details: reference: sequence is the full UniProt precursor, the tested protein was the secreted form or ectodomain
MCF7 = test: as above; details: reference: sequence is the full UniProt precursor, the tested protein was the secreted form or ectodomain
[1] = protein concentration 0.0214286 µM
[2] = protein concentration 0.0225 µM
[3] = protein concentration 0.214286 µM
[4] = protein concentration 0.0257143 µM
[5] = protein concentration 0.257143 µM
[6] = protein concentration 0.03125 µM
[7] = protein concentration 0.3125 µM
[8] = protein concentration 0.00714286 µM
[9] = protein concentration 0.0714286 µM
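Also: secreted proteins added to cultured cells, EdU pulse at the end, nuclei found by Hoechst imaging, EdU status from nuclear versus surrounding ring intensity ratio, PBS as neutral control.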

MGPWSRSLSALLLLLQVSSWLCQEPEPCHPGFDAESYTFTVPRRHLERGRVLGRVNFEDCTGRQRTAYFSLDTRFKVGTDGVITVKRPLRFHNPQIHFLVYAWDSTYRKFSTKVTLNTVGHHHRPPPHQASVSGIQAELLTFPNSSPGLRRQKRDWVIPPISCPENEKGPFPKNLVQIKSNKDKEGKVFYSITGQGADTPPVGVFIIERETGWLKVTEPLDRERIATYTLFSHAVSSNGNAVEDPMEILITVTDQNDNKPEFTQEVFKGSVMEGALPGTSVMEVTATDADDDVNTYNAAIAYTILSQDPELPDKNMFTINRNTGVISVVTTGLDRESFPTYTLVVQAADLQGEGLSTTATAVITVTDTNDNPPIFNPTTYKGQVPENEANVVITTLKVTDADAPNTPAWEAVYTILNDDGGQFVVTTNPVNNDGILKTAKGLDFEAKQQYILHVAVTNVVPFEVSLTTSTATVTVDVLDVNEAPIFVPPEKRVEVSEDFGVGQEITSYTAQEPDTFMEQKITYRIWRDTANWLEINPDTGAISTRAELDREDFEHVKNSTYTALIIATDNGSPVATGTGTLLLILSDVNDNAPIPEPRTIFFCERNPKPQVINIIDADLPPNTSPFTAELTHGASANWTIQYNDPTQESIILKPKMALEVGDYKINLKLMDNQNKDQVTTLEVSVCDCEGAAGVCRKAQPVEAGLQIPAILGILGGILALLILILLLLLFLRRRAVVKEPLLPPEDDTRDNVYYYDEEGGGEEDQDFDLSQLHRGLDARPEVTRNDVAPTLMSVPRYLPRPANPDEIGNFIDENLKAADTDPTAPPYDSLLVFDYEGSGSEAASLSSLNSSESDKDQDYDYLNEWGNRFKKLADMYGGGEDD
percentage of EdU-negative (hTERT-HMEC; [1]): 5.09 ± 0.58%
percentage of EdU-negative (hTERT-HMEC; [2]): 4.93 ± 0.37%
percentage of EdU-negative (hTERT-HMEC; [3]): 6.74 ± 0.63%
percentage of EdU-negative (hTERT-HMEC; protein concentration 0.225 µM): 23.4 ± 1.1%
percentage of EdU-negative (MCF7; [1]): 23.8 ± 3.6%
percentage of EdU-negative (MCF7; [2]): 26.2 ± 3.6%
percentage of EdU-negative (MCF7; [3]): 26.8 ± 1.9%
percentage of EdU-negative (MCF7; protein concentration 0.225 µM): 28.91 ± 0.16%

MGRDLRPGSRVLLLLLLLLLVYLTQPGNGNEGSVTGSCYCGKRISSDSPPSVQFMNRLRKHLRAYHRCLYYTRFQLLSWSVCGGNKDPWVQELMSCLDLKECGHAYSGIVAHQKHLLPTSPPISQASEGASSDIHTPAQMLLSTLQSTQRPTLPVGSLSSDKELTRPNETTIHTAGHSLAAGPEAGENQKQPEKNAGPTARTSATVPVLCLLAIIFILTAALSYVLCKRRRGQSPQSSPDLPVHYIPVAPDSNT [Q9H2A7]
percentage of EdU-negative (hTERT-HMEC; [4]): 4.5 ± 0.52%
percentage of EdU-negative (hTERT-HMEC; [5]): 4.18 ± 0.16%
percentage of EdU-negative (MCF7; [4]): 25.9 ± 0.7%
percentage of EdU-negative (MCF7; [5]): 25.9 ± 2.8%

MGRGWGFLFGLLGAVWLLSSGHGEEQPPETAAQRCFCQVSGYLDDCTCDVETIDRFNNYRLFPRLQKLLESDYFRYYKVNLKRPCPFWNDISQCGRRDCAVKPCQSDEVPDGIKSASYKYSEEANNLIEECEQAERLGAVDESLSEETQKAVLQWTKHDDSSDNFCEADDIQSPEAEYVDLLLNPERYTGYKGPDAWKIWNVIYEENCFKPQTIKRPLNPLASGQGTSEENTFYSWLEGLCVEKRAFYRLISGLHASINVHLSARYLLQETWLEKKWGHNITEFQQRFDGILTEGEGPRRLKNLYFLYLIELRALSKVLPFFERPDFQLFTGNKIQDEENKMLLLEILHEIKSFPLHFDENSFFAGDKKEAHKLKEDFRLHFRNISRIMDCVGCFKCRLWGKLQTQGLGTALKILFSEKLIANMPESGPSYEFHLTRQEIVSLFNAFGRISTSVKELENFRNLLQNIH [Q96HE7]
percentage of EdU-negative (hTERT-HMEC; [6]): 6.24 ± 0.39%
percentage of EdU-negative (hTERT-HMEC; [7]): 6.47 ± 0.033%
percentage of EdU-negative (MCF7; [6]): 26.32 ± 0.034%
percentage of EdU-negative (MCF7; [7]): 25.7 ± 0.52%

MGRPRPRAAKTWMFLLLLGGAWAGHSRAQEDKVLGGHECQPHSQPWQAALFQGQQLLCGGVLVGGNWVLTAAHCKKPKYTVRLGDHSLQNKDGPEQEIPVVQSIPHPCYNSSDVEDHNHDLMLLQLRDQASLGSKVKPISLADHCTQPGQKCTVSGWGTVTSPRENFPDTLNCAEVKIFPQKKCEDAYPGQITDGMVCAGSSKGADTCQGDSGGPLVCDGALQGITSWGSDPCGRSDKPGVYTNICRYLDWIKKIIGSKG
percentage of EdU-negative (hTERT-HMEC; [2]): 4.99 ± 0.28%
percentage of EdU-negative (hTERT-HMEC; protein concentration 0.225 µM): 5.28 ± 0.5%
percentage of EdU-negative (MCF7; [2]): 26.4 ± 2.5%
percentage of EdU-negative (MCF7; protein concentration 0.225 µM): 24.6 ± 0.69%

MGRRDAQLLAALLVLGLCALAGSEKPSPCQCSRLSPHNRTNCGFPGITSDQCFDNGCCFDSSVTGVPWCFHPLPKQESDQCVMEVSDRRNCGYPGISPEECASRKCCFSNFIFEVPWCFFPKSVEDCHY
percentage of EdU-negative (hTERT-HMEC; [2]): 5.31 ± 1.5%
percentage of EdU-negative (hTERT-HMEC; protein concentration 0.225 µM): 5.92 ± 0.79%
percentage of EdU-negative (MCF7; [2]): 23 ± 1.6%
percentage of EdU-negative (MCF7; protein concentration 0.225 µM): 24.8 ± 1.3%

MGSGAGELGRAERLPVLFLFLLSLFCPALCEQIRYRIPEEMPKGSVVGNLATDLGFSVQELPTRKLRVSSEKPYFTVSAESGELLVSSRLDREEICGKKPACALEFEAVAENPLNFYHVNVEIEDINDHTPKFTQNSFELQISESAQPGTRFILEVAEDADIGLNSLQKYKLSLNPSFSLIIKEKQDGSKYPELALEKTLDREQQSYHRLVLTALDGGHPPLSGTTELRIQVTDANDNPPVFNRDVYRVSLRENVPPGTTVLQVSATDQDEGINSEITYSFYRTGQIFSLNSKSGEITTQKKLDFEETKEYSMVVEGRDGGGLVAQCTVEINIQDENDNSPEVTFHSLLEMILENAVPGTLIALIKIHDQDSGENGEVNCQLQGEVPFKIISSSKNSYKLVTDGTLDREQTPEYNVTITATDRGKPPLSSSISVILHIRDVNDNAPVFHQASYLVSVPENNPPGASIAQVCASDLDLGLNGQVSYSIMASDLEPLALASYVSMSAQSGVVFAQRAFDYEQLRTFELTLQARDQGSPALSANVSLRVLVGDRNDNAPRVLYPALGPDGSALFDMVPRAAEPGYLVTKVVAVDADSGHNAWLSYHVLQASEPGLFSLGLRTGEVRTARALGDRDAARQRLLVAVRDGGQPPLSATATLHLVFADSLQEVLPDITDRPVPSDPQAELQFYLVVALALISVLFLLAVILAVALRLRRSSSPAAWSCFQPGLCVKSGPVVPPNYSQGTLPYSYNLCVAHTGKTEFNFLKCSEQLSSGQDILCGDSSGALFPLCNSSESTSHPELQAPPNTDWRFSQAQRPGTSGSQNGDDTGTWPNNQFDTEMLQAMILASASEAADGSSTLGGGAGTMGLSARYGPQFTLQHVPDYRQNVYIPGSNATLTNAAGKRDGKAPAGGNGNKKKSGKKEKK [Q9Y5G0]
percentage of EdU-negative (hTERT-HMEC; [8]): 5.16 ± 0.12%
percentage of EdU-negative (hTERT-HMEC; [9]): 11.4 ± 4.3%
percentage of EdU-negative (MCF7; [8]): 26.7 ± 4%
percentage of EdU-negative (MCF7; [9]): 34.45 ± 0.24%
